According to patent publication US10363214B2, “Method for treating atrophic age related macular degeneration” (Allergan, Inc., priority 2008, dated 2019):

What was measured:
[1] = 1.25 to 2.5 mg aqueous bevacizumab into the vitreous cavity; animal and human studies; cited from earlier work
ARPE-19 cells = test: ARPE-19 cell viability (MTT) assay with polysorbate 80; assay type: cell-based
Description: An experiment was carried out to examine the toxicity of a polysorbate retinal penetrant enhancer to retinal pigment epithelial (“RPE”) cells. Thus, ARPE-19 cells (see Dunn K. et al., ARPE-19, a human retinal pigment epithelial cell line with differentiated properties, Exp Eye Res. 1996 Feb;62(2):155-69) were incubated in vitro in concentrations of polysorbate 80 ranging from 0% to 0.10% w/w and a cell viability assay was performed.
The protocol for this in vitro experiment was as follows: ARPE-19 cells (passage 11 to 23) were seeded the day prior to experimentation in 24 well-plates at 125.000 cells/well in DMEM:F12 medium supplemented with 10% FBS. Time course and dose response were simultaneously performed on ARPE-19 cells. Parameters of incubating solutions such as pH, osmolarity were measured for every concentration. Times of incubation were 24 h, 48 h, 72 h. One negative (non-treated) and one positive control (5 mM H2O2) were included. Non-treated condition was cell culture medium supplemented with serum. 5 mM H2O2 was prepared from 3% H2O2 stock solution (875 mM). Concentrations applied to cells were determined considering several parameters, such as • (a) commonly used concentration in formulation. • (b) limiting concentration to compound solubility. • (c) limiting concentration to applicable viscosity, osmolarity and pH values. In a first approach, the concentrations covered a wide range (Exp.1). After preliminary results, a second set of experiments (Exp.2 to 4) determined more accurately compound concentrations leading to inhibition of 50% of cell viability, based on cell viability assay and morphological aspect. […] Results from MTT assay were expressed as a percentage of cell viability calculated as follows: % cell viability=ODtest/ODcontrol×100. […] Gap concentration bringing to 50% cell viability was therefore determined. Morphological appearance was analyzed by semi-quantitative scoring ranging from 5 to 1, from normal to lethal phenotype respectively.

wet AMD eye = test: Monthly intravitreal injections in wet AMD eye of patient (paper case examples); assay type: in vivo, human
Source text: A person has age-related macular degeneration and cataracts in both eyes. […] The patient can complain of blurry vision and metamorphopsia in the right eye and examination can reveal visual acuity of 20/400 right eye, 20/32 left eye. Retinal examination can show subfoveal choroidal neovascularization (CNV) (right eye wet AMD) approximately 1 disc area in size with surrounding hemorrhage and edema in the right eye. The fellow left eye can show high-risk features for developing wet AMD such as soft, amorphic appearing drusen that included the fovea but no signs of choroidal neovascularization and can be confirmed by fluorescein angiography (left eye dry AMD).
A person can wake up with blurry vision in the left eye. They can have a history of glaucoma, s/p cataract removal with IOLs (intraocular lenses), and dry AMD in both eyes and can be taking Alphagan P eye drops. The patient's ophthalmologist can examine them and they can be diagnosed with left eye wet AMD and sent immediately to a retinal specialist. The vision can be 20/25 in the right eye and 20/200 in the left eye. Retinal examination can show dry changes in the right eye macula but high risk features such as large drusen and numerous pigmentary changes in the subfoveal region. The left eye macula can show a subfoveal CNV approximately 2 disc areas in size with surrounding macular edema and intraretinal hemorrhages. Fluorescein angiography can confirm the presence of left eye CNV predominantly classic in appearance. […] Since the patient was at high risk for developing CNV in their right eye, and the vision in the left eye may not appreciably improve over the 3 month period, they can receive an intravitrea injection into the right eye of 50 ul comprising 4.8 mg of ranibizumab incorporated into PLGA microspheres, to prophylax against the development of CNV in the right eye. Polysorbate 20 PLGA microspheres with an in vitro release rate of 5 ug/day can also be placed in the formulation to enhance retinal permeability. The microspheres can be placed in a partially cross-linked hyaluronic acid (HA) at a HA concentration of 2.1%. Such a cross-linked HA can be obtained from Allergan Medical (Irvine, Calif.) under the brand names Juvederm Ultra Plus, Juvederm 30, Captique, and Voluma.

Molecule: bevacizumab
- intraocular toxicity [1]: without significant intraocular toxicity

Molecule: polysorbate 80
- polysorbate 80 concentrations associated with declining RPE cell viability (ARPE-19 cells; ARPE-19 cells, 24, 48 and 72 h incubation, also printed as 0.6 mg/ml, FIG. 1): over 0.06%
- polysorbate 80 concentrations associated with cell viabilities of less than 50% (ARPE-19 cells; ARPE-19 cells, 24, 48 and 72 h incubation, also printed as 0.9 mg/ml, FIG. 1): > 0.09%
- total maximum weight of polysorbate in the vitreous at one time (ARPE-19 cells; assuming a vitreous volume of 4 ml in a human eye): ≤ 3.6 mg

B1: ranibizumab (antibody, chains of the INN, looked up, V domains shown)
VH: EVQLVESGGGLVQPGGSLRLSCAASGYDFTHYGMNWVRQAPGKGLEWVGWINTYTGEPTYAADFKRRFTFSLDTSKSTAYLQMNSLRAEDTAVYYCAKYPYYYGTSHWYFDVWGQGTLVTVSS
VL: DIQLTQSPSSLSASVGDRVTITCSASQDISNYLNWYQQKPGKAPKVLIYFTSSLHSGVPSRFSGSGSGTDFTLTISSLQPEDFATYYCQQYSTVPWTFGQGTKVEIK
modifications: Fab
- edema and hemorrhage, right wet AMD eye (wet AMD eye; Example 1, within 4 months): resolution of the edema and hemorrhage
- visual acuity, right wet AMD eye (wet AMD eye; Example 1, within 4 months, baseline 20/400): 20/125
- left eye visual acuity (wet AMD eye) (wet AMD eye; Example 3, 3 month period, baseline 20/200): 20/100
- retinal edema, left wet AMD eye (wet AMD eye; Example 3, over a 3 month period): resolution of the retinal edema
